Assay results: article PMC3641235

System: HDM2 (C-terminal HA);p53 (human;human?)
Test: pull-down (anti-HA beads, real-time PCR)
Settings: 100 uM Nutlin-3A (disrupts p53-HDM2); Anti-HA protein G beads; blocked in PBST-3% BSA, IVT HDM2 30 min, Nutlin 1 h, IVT p53 1 h; washes PBST-0.1% BSA then PBS; temperature and pH not given

“2ConA-HDM2 DNA template (two CONA p53 response elements)” showed a binding signal (fold reduction of DNA pulled down) of 383.
